Here are results for one molecule from US20250002610A1 (Genmab, published 2025).

Broadly, the EC50 is the concentration at which the effect is half-maximal.

The target of assay [1] is T1, human DR4 (Death Receptor 4), cell surface expressed on human tumor cell lines (human, UniProt O00220 24-468).
T1 construct: also called TNFRSF10A; TRAIL-R1
T1 sequence: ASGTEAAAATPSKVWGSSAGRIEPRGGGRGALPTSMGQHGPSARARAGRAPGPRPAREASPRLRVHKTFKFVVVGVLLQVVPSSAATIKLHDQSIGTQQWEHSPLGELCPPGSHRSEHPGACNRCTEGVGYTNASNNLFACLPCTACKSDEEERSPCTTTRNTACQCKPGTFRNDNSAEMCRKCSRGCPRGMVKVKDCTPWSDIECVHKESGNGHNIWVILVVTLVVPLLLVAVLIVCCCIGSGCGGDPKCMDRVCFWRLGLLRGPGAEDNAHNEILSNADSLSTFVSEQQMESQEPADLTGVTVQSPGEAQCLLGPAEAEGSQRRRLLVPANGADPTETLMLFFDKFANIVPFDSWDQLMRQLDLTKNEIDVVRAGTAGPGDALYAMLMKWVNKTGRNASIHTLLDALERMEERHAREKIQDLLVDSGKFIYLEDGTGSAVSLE
Briefly: flow cytometry, A549 cells, n = 2.

The target in assay [2] is T1, human DR4 (Death Receptor 4), cell …. Briefly: flow cytometry, DLD-1 cells, n = 1. (In general: In flow cytometry, cells or beads pass a laser one at a time.)
Assay [3] shares this target. Briefly: flow cytometry, DLD-1 cells, n = 2.
The target is the same in assay [4]. Description: flow cytometry, MDA-MB-231 cells, n = 1.
The target is the same in assay [5]. Description: flow cytometry, MDA-MB-231 cells, N = 2.
The target is the same in assay [6]. Description: flow cytometry, DLD-1 cells, average ± SEM.
Assay [7] shares this target. Briefly: flow cytometry, MDA-MB-231 cells, average ± SEM.
For assay [8] the target is unchanged. Briefly: flow cytometry, MDA-MB-231 cells, average ± SEM. The source holds these as a separate data set.

B1: BisG1-b12-FERL/DR4-FERR (bispecific antibody, human IgG1, kappa, lambda)
heavy 1: QVQLVQSGAEVKKPGASVKVSCQASGYRFSNFVIHWVRQAPGQRFEWMGWINPYNGNKEFSAKFQDRVTFTADTSANTAYMELRSLRSADTAVYYCARVGPYSWDDSPQDNYYMDVWGKGTTVIVSSASTKGPSVFPLAPSSKSTSGGTAALGCLVKDYFPEPVTVSWNSGALTSGVHTFPAVLQSSGLYSLSSVVTVPSSSLGTQTYICNVNHKPSNTKVDKRVEPKSCDKTHTCPPCPAPEFERGPSVFLFPPKPKDTLMISRTPEVTCVVVDVSHEDPEVKFNWYVDGVEVHNAKTKPREEQYNSTYRVVSVLTVLHQDWLNGKEYKCKVSNKALPAPIEKTISKAKGQPREPQVYTLPPSREEMTKNQVSLTCLVKGFYPSDIAVEWESNGQPENNYKTTPPVLDSDGSFLLYSKLTVDKSRWQQGNVFSCSVMHEALHNHYTQKSLSLSPG
light 1: EIVLTQSPGTLSLSPGERATFSCRSSHSIRSRRVAWYQHKPGQAPRLVIHGVSNRASGISDRFSGSGSGTDFTLTITRVEPEDFALYYCQVYGASSYTFGQGTKLERKRTVAAPSVFIFPPSDEQLKSGTASVVCLLNNFYPREAKVQWKVDNALQSGNSQESVTEQDSKDSTYSLSSTLTLSKADYEKHKVYACEVTHQGLSSPVTKSFNRGEC
heavy 2: QVQLQESGPGLVKPSGTLSLTCAVSGGSISSYSWWSWIRQPPGKGLEWIGELYHSGSTNYNPSLKSRVTISVDKSKNQFSLKLRSVTAADTAVYYCVRGVATIDYWGQGTLVTVSSASTKGPSVFPLAPSSKSTSGGTAALGCLVKDYFPEPVTVSWNSGALTSGVHTFPAVLQSSGLYSLSSVVTVPSSSLGTQTYICNVNHKPSNTKVDKRVEPKSCDKTHTCPPCPAPEFERGPSVFLFPPKPKDTLMISRTPEVTCVVVDVSHEDPEVKFNWYVDGVEVHNAKTKPREEQYNSTYRVVSVLTVLHQDWLNGKEYKCKVSNKALPAPIEKTISKAKGQPREPQVYTLPPSREEMTKNQVSLTCLVKGFYPSDIAVEWESNGQPENNYKTTPPVLDSDGSFFLYSRLTVDKSRWQQGNVFSCSVMHEALHNHYTQKSLSLSPG
light 2: QSALTQPPSASGSPGQSVTISCTGTSSDVGGYNFVSWYQQDPGKAPKLLIYEVTKRPSGVPDRFSGSKSGNTASLTVSGLQAEDEADYYCSSYAGSNNVMFGGGTKLTVLGQPKAAPSVTLFPPSSEELQANKATLVCLISDFYPGAVTVAWKADSSPVKAGVETTTPSKQSNNKYAASSYLSLTPEQWKSHRSYSCQVTHEGSTVEKTVAPTECS
notes: Fab-arm exchange of IgG1-b12-FERL and IgG1-DR4-FERR; also called bsIgG1-ctrl-FERLxDR4-FERR
For the molecule B1, the EC50 in assay [1] came out at 0.68 µg/mL; in assay [2], 0.85 µg/mL; in assay [3], 0.68 µg/mL; in assay [4], 1.14 µg/mL; in assay [5] it was 0.95 µg/mL; in assay [6] it was 0.72 µg/mL. Moreover, the EC50 stood at 1.02 µg/mL in assay [7] and 0.67 µg/mL in assay [8]. The “Max MFI (at 90 µg/mL)” value in assay [5] and in assay [8] was 7840 MFI throughout.
